Non-standard residues stand in square brackets, D forms with d. No end group written: not given here. pT = C[C@@H](OP(=O)(O)O)[C@H](N)C(=O)O

Experiment [1] deals with T1, U24-6A protein (recombinant full length U24 from HHV-6A) (Human Herpes Virus type 6A (HHV-6A), UniProt Q69559 1-87).
T1 construct: U24 protein of Human Herpes Virus type 6A (HHV-6A), full length
T1 sequence: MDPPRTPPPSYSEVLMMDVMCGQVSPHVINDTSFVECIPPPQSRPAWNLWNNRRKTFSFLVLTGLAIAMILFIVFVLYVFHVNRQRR
As to the kind of experiment: pull-down; GST-Nedd4 WW domain (1 to 2 nmole) immobilised on 20 uL Glutathione Sepharose 4B resin, incubated 1 hour at 4 °C with U24 protein in pull down buffer (20 mM KH2PO4, 75 mM NaCl, 0.5% Triton X-100, pH 7.4; 1 mM DTT for U24-7); SDS-PAGE, silver stain. Conditions: both partners purified.

The target of experiment [2] is T2, rNedd4-WW3/4 domain (third WW domain of rat Nedd4, GST tag removed) (rat, UniProt Q62940 452-499).
T2 construct: Nedd4 E3 ubiquitin ligase, rat, third WW domain (WW3/4, homologue of the fourth WW domain in human); Thrombin cleavage may leave vector residues at the N-terminus (surmised); source: E. coli BL21(DE3), purified (Glutathione Sepharose 4B, thrombin cleavage on the resin); 15N-labelled in M9 medium for NMR; not shown: GST, N-terminal, cleaved
The experiment can be described thus: ITC; peptide titrated into the cleaved WW domain (40 to 150 uM) in the cell; 10 mM sodium phosphate, pH 7.4, 25 °C; MicroCal VP-ITC; bimolecular interaction model; three runs (further runs with 100 mM and 500 mM NaCl told in words only). Particulars: both partners purified.

B1: GST-rNedd4-WW3/4 (third WW domain of rat Nedd4 fused to the C-terminus of GST) (domain or fragment)
chain: PVDSNDLGPLPPGWEERTHTDGRVFFINHNIKKTQWEDPRMQNVAITG
notes: Nedd4 E3 ubiquitin ligase, rat, third WW domain (WW3/4, homologue of the fourth WW domain in human); Plasmid was a gift from J. D. Forman-Kay; source: E. coli BL21(DE3), purified (Glutathione Sepharose 4B, eluted with glutathione); not shown: GST, N-terminal, kept
Regarding B1, the binding result in experiment [1] is “binds”.

B2: GST-hNedd4L-WW3* (third WW domain of human Nedd4-like protein fused to the C-terminus of GST) (domain or fragment)
chain: QSFLPPGWEMRIAPNGRPFFIDHNTKTTTWEDPRLKFPVHMRSK
notes: Nedd4-like protein (Nedd4L), human, cDNA clone KIAA0439, third WW domain (WW3*); Cloned into BamHI and XhoI sites of pGEX-4T2; source: E. coli BL21(DE3), purified (Glutathione Sepharose 4B, eluted with glutathione); not shown: GST, N-terminal, kept
As for B2, the binding result in experiment [1] is given as “binds”.

B3: pU24-6A peptide (15-mer, N-terminus of U24 from HHV-6A phosphorylated at Thr6) (peptide)
peptide: MDPPR[pT]PPPSYSEVL
notes: U24 protein of Human Herpes Virus type 6A (HHV-6A), 15-mer of the N-terminus with phospho-threonine at Thr6; source: purified peptide
By Kd is commonly meant the concentration at which binding is half-saturated. A high value points to lower affinity. Regarding B3, in experiment [2], binding was put at a Kd of 13.5 µM and the dH is -12.9 kcal/mol.

B4: U24-6A peptide (15-mer, N-terminus of U24 from HHV-6A) (peptide)
peptide: MDPPRTPPPSYSEVL
notes: U24 protein of Human Herpes Virus type 6A (HHV-6A), first 15 residues; source: purified peptide
For the molecule B4, in experiment [2], the Kd was determined as 43 µM and the dH is -11 kcal/mol.
